B1: NP19 (antibody, V domains shown)
VH: EVQLVESGGGLVQPGGSLRLSCAASGFTISSWGIHWVRQAPGKGLEWVAGIGPFWGYTSYADSVKGRFTISADTSKNTAYLQMNSLRAEDTAVYYCARFGVDNYGYMDYWGQGTLVTVSS
VL: DIQMTQSPSSLSASVGDRVTITCRASQDVSGWVAWYQQKPGKAPKLLISWSTGLYSGVPSRFSGSGSGTDFTLTISSLQPEDFATYYCQQYFNFPVTFGQGTKVEIKR
B2: NP3 (antibody, V domains shown)
VH: EVQLVESGGGLVQPGGSLRLSCAASGFTISNYGIHWVRQAPGKGLEWVAGIWPFGGFTSYADSVKGRFTISADTSKNTAYLQMNSLRAEDTAVYYCARFHWNDHGYMDYWGQGTLVTVSS
VL: DIQMTQSPSSLSASVGDRVTITCRASQDVGWYVAWYQQKPGKAPKLLIYSTTGLYSGVPSRFSGSGSGTDFTLTISSLQPEDFATYYCQQYYNYPITFGQGTKVEIKR
B3: NP5 (antibody, V domains shown)
VH: EVQLVESGGGLVQPGGSLRLSCAASGFTISNGSIHWVRQAPGKGLEWVAGIWPSGGSTSYADSVKGRFTISADTINNSAYLQMNSLRAEDTAVYYCARWNYWGQGTLVTVSS
VL: DIQMTQSPSSLSASVGDRVTITCRASQDVGWSVAWYQQKPGKAPKLLIYGSRWLYSGVPSRFSGSGSGTDFTLTISSLQPEDFATYYCQQGYNGPLTFGQGTKVEIKR
B4: NP6 (antibody, V domains shown)
VH: EVQLVESGGGLVQPGGSLRLSCAASGFTINDGSIHWVRQAPGKGLEWVAGIGPFGGFTYYADSVKGRFTISADTSKNTAYLQMNSLRAEDTAVYYCARSGYSGSFDYWGQGTLVTVSS
VL: DIQMTQSPSSLSASVGDRVTITCRASQDVYFGVAWYQQKPGKAPKLLIYGTSYLYSGVPSRFSGSGSGTDFTLTISSLQPEDFATYYCQQFSNWPITFGQGTKVEIKR
B5: NP7 (antibody, V domains shown)
VH: EVQLVESGGGLVQPGGSLRLSCAASGFTISNGGIHWVRQAPGKGLEWVAGIGPYGGFTSYADSVKGRFTISADTSKNTAYLQMNSLRAEDTAVYYCARFYSNYYGYHGVMDYWGQGTLVTVSS
VL: DIQMTQSPSSLSASVGDRVTITCRASQDVFGWVAWYQQKPGKAPKLLISYSASLYSGVPSRFSGSGSGTDFTLTISSLQPEDFATYYCQQYFNYPLTFGQGTKVEIKR
B6: NP15 (antibody, V domains shown)
VH: EVQLVESGGGLVQPGGSLRLSCAASGFTISNWYIHWVRQAPGKGLEWVAGIGPYGGSTYYADSVKGRFTISADTSKNTAYLQMNSLRAEDTAVYYCARFHWDHLHGMDYWGQGTLVTVSS
VL: DIQMTQSPSSLSASVGDRVTITCRASQDVDNNVAWYQQKPGKAPKLLISYSTGLYSGVPSRFSGSGSGTDFTLTISSLQPEDFATYYCQQYWNYPITFGQGTKVEIKR
B7: NP16 (antibody, V domains shown)
VH: EVQLVESGGGLVQPGGSLRLSCAASGFTIGNSGIHWVRQAPGKGLEWVAWIGPYWGFTSYADSVKGRFTISADTSKNTAYLQMNSLRAEDTAVYYCARFGNHWHLFMDYWGQGTLVTVSS
VL: DIQMTQSPSSLSASVGDRVTITCRASQDVGSYVAWYQQKPGKAPKLLISWTTGLYSGVPSRFSGSGSGTDFTLTISSLQPEDFATYYCQQYFSYPVTFGQGTKVEIKR
B8: NP17 (antibody, V domains shown)
VH: EVQLVESGGGLVQPGGSLRLSCAASGFTISGGSIHWVRQAPGKGLEWVASIWPFGGSTFYADSVKGRFTISADTSKNTAYLQMNSLRAEDTAVYYCARFGHGHNVIMDYWGQGTLVTVSS
VL: DIQMTQSPSSLSASVGDRVTITCRASQDVGYSVAWYQQKPGKAPKLLISSPGGLYSGVPSRFSGSGSGTDFTLTISSLQPEDFATYYCQQYYDYPVTFGQGTKVEIKR
B9: NP21 (antibody, V domains shown)
VH: EVQLVESGGGLVQPGGSLRLSCAASGFTINGYGIHWVRQAPGKGLEWVAGIWPYGGSTFYADSVKGRFTISADTSKNTAYLQMNSLRAEDTAVYYCARFYNNHGGIMDYWGQGTLVTVSS
VL: DIQMTQSPSSLSASVGDRVTITCRASQDVYFYVAWYQQKPGKAPKLLIYGSRWLYSGVPSRFSGSGSGTDFTLTISSLQPEDFATYYCQQYSNFPVTFGQGTKVEIKR
B10: NP22 (antibody, V domains shown)
VH: EVQLVESGGGLVQPGGSLRLSCAASGFTISDWSIHWVRQAPGKGLEWVAGIWPYWGSTSYADSVKGRFTISADTSKNTAYLQMNSLRAEDTAVYYCARGFYSWFDYWGQGTLVTVSS
VL: DIQMTQSPSSLSASVGDRVTITCRASQDVFSWVAWYQQKPGKAPKLLISSASSLYSGVPSRFSGSGSGTDFTLTISSLQPEDFATYYCQQSWDYPITFGQGTKVEIKR
B11: NP18 (antibody, V domains shown)
VH: EVQLVESGGGLVQPGGSLRLSCAASGFTISGGGIHWVRQAPGKGLEWVASIWPSWGSTSYADSVKGRFTISADTSKNTAYLQMNSLRAEDTAVYYCARFHNGGFLVMDYWGQGTLVTVSS
VL: DIQMTQSSSSLSASVGDRVTITCRASQDVGYYVAWYQQKPGKAPKLLIYGPRFLYSGVPSRFSGSGSGTDFTLTISSLQPEDFATYYCQQYSNWPITFGQGTKVEIKR

Key:
[1] = substrate: NP of A/Wisconsin/67/2005(H3N2/H3W) (influenza A virus A/Wisconsin/67/2005 (H3N2)); assay: sandwich ELISA, capture IgG; NP of lysed virus titrated; HRP-NP16 detection
[2] = substrate: NP of A/Wisconsin/67/2005(H3N2/H3W) (influenza A virus A/Wisconsin/67/2005 (H3N2)); assay: sandwich ELISA, capture IgG; NP of lysed virus titrated; HRP-NP17 detection
[3] = substrate: NP of A/Wisconsin/67/2005(H3N2/H3W) (influenza A virus A/Wisconsin/67/2005 (H3N2)); assay: ELISA on virus-infected fixed MDCK cells

Sequence of NP of A/Wisconsin/67/2005(H3N2/H3W) (influenza A virus A/Wisconsin/67/2005 (H3N2)) (P03466 whole entry): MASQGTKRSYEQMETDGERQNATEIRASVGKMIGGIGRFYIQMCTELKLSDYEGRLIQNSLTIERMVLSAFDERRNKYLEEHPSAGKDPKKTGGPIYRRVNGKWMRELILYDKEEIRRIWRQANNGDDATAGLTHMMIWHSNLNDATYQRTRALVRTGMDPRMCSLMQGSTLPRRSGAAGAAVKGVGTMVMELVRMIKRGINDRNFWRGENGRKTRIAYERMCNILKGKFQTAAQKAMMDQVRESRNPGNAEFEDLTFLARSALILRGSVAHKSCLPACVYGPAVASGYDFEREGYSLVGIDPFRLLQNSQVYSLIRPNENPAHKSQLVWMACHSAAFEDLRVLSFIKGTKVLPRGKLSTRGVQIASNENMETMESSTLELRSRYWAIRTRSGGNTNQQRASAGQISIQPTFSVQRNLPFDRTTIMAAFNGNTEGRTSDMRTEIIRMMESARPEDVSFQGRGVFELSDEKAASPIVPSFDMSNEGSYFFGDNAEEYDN

| Binder | EC50 [1] | EC50 [2] | EC50 [3] |
| --- | --- | --- | --- |
| B1 | 3.88 nM | 0.765 nM | 0.215 nM |
| B2 | 1.81 nM | 0.828 nM | 0.25 nM |
| B3 | 3.13 nM | 0.879 nM | – |
| B4 | 2.7 nM | 1.98 nM | – |
| B5 | 2.26 nM | 0.821 nM | – |
| B6 | 2.52 nM | 0.779 nM | 0.449 nM |
| B7 | 4.1 nM | 0.891 nM | 0.248 nM |
| B8 | 3.09 nM | 1.07 nM | – |
| B9 | 2.88 nM | 0.848 nM | – |
| B10 | 91.4 nM | 82.8 nM | – |
| B11 | – | 1000 nM | 0.192 nM |

From US20230212554A1
